{"source": "patent US20230040008A1", "about": "“ANTI-HER2 POLYPEPTIDES DERIVATIVES AS NEW DIAGNOSTIC MOLECULAR PROBES” (BRACCO IMAGING S.P.A., priority 2019, published 2023)", "molecules": {"B1": {"name": "affitin Aff02-0 (designed binder)", "chain": "MRGSHHHHHHGSVKVKFWGAGVEKEVDTSKITWVTRSGKYVIFTYDDNGKAGPGRVPEKDAPKELLDMLARAEREK", "notes": "also called unlabeled Aff02-0 affitin"}, "B2": {"name": "Aff01: 64 aac anti-HER2 affitin, SEQ ID NO: 1 (protein)", "chain": "VKVKFWGAGVEKEVDTSKITWVTRSGKYVIFTYDDNGKAGPGRVPEKDAPKELLDMLARAEREK"}, "B3": {"name": "IRDye800CW-Aff02 conjugate (designed binder)", "chain": "MRGSHHHHHHGSVKVKFWGAGVEKEVDTSKITWVTRSGKYVIFTYDDNGKAGPGRVPEKDAPKELLDMLARAEREKC", "modifications": "chain 1 pos 77: Cys carrying IRDye800CW through a maleimide thioether, written C", "notes": "Aff02 was reduced with TCEP, then coupled to IRDye800CW-maleimide at the C-terminal Cys"}, "B4": {"name": "IRDye800CW-Aff02: fluorophore IRDye800CW-maleimide conjugated to the C-terminal cysteine of affitin Aff02 (conjugate)", "chain": "B3 chain", "modifications": "cyclised or stapled"}, "B5": {"name": "Aff02: 77 aac variant of SEQ ID NO: 1 with a Cys at the C-terminus and a hexahistidine tag at the N-terminus (protein)", "chain": "B3 chain"}}, "key": {"[1]": {"molecular_target": "T1, human HER2 (hHER2) recombinant protein (Homo sapiens, UniProt P04626)", "T1 construct": "purchased R&D Systems", "experiment": "Biolayer interferometry (BLI) affinity assay on protein A biosensors coated with hHER2", "conditions": "1:1 binding fit model", "procedure": "(§1) Affinity experiments were performed by Biolayer Interferometry (BLI) assay, using an Octet System and Protein A biosensors (ForteBio). Recombinant human protein hHER2 was purchased from R&D Systems (Minneapolis, US).\n(§2) The affinity of the polypeptides of the invention for the target HER2 was measured by Biolayer interferometry assay. To this purpose, the protein A biosensors (ForteBio) were coated with human HER2 (hHER2) recombinant protein. After a brief wash with PBS, the coated sensor was assayed versus the affitin Aff02-0 at different concentrations (i.e. […], 500, 250, 125, 62.5, 31.3, 15.6 and 0 nM).\n(§3) A curve fitting analysis was then performed in order to determine the dissociation equilibrium constant. The sensorgrams were analyzed using the Octet Data Analysis software 8.2 (ForteBio) with a 1:1 binding fit model to determine the dissociation equilibrium constant (Kd) and the related association and dissociation rate constants (kon and koff) with R^2 value assessing the fitting quality.\nas §2, with “IRDye800CW-Aff02 conjugate to” for “polypeptides of the invention for”, “IRDye800CW-Aff02 conjugate” for “affitin Aff02-0”, “1000, 100, 10, 1, 0.1 ng/mL).” for “500, 250, 125, 62.5, 31.3, 15.6 and 0 nM).”\nA steady state analysis was performed in order to determine the dissociation equilibrium constant. The sensorgrams were analyzed using the Octet Data Analysis software 8.2 (ForteBio) with a 1:1 binding fit model to determine the dissociation equilibrium constant (Kd)."}, "[2]": {"molecular_target": "T2, recombinant human protein hHER2 (R&D Systems) (human, UniProt P04626 23-652)", "T2 construct": "also called human HER2 (hHER2) recombinant protein", "experiment": "BLI (Octet), hHER2 on Protein A biosensors, 1:1 fit", "procedure": "as §1, §2\nas §3, with “(kₒₙ” for “(kon”, “R²” for “R^2”"}, "[3]": {"tested_on": "MCF-7 breast cancer cell line (low expressing HER2 receptor)", "experiment": "Cell internalization assay (viability with Pe38 fusion), HER2 low expressing cells", "assay_type": "cell-based", "conditions": "Aff01 tested as fusion Aff02-0/Pe38 (SEQ ID NO: 5); different nanofitin concentrations", "procedure": "(§4) The cells internalization of Aff01 was evaluated using a dedicated cell-based assay. Briefly, Aff01 was tagged with SEQ ID NO: 3 (i.e. forming sequence Aff02-0) and then fused to a truncated portion of Pseudomonas exotoxin A, wherein the cell internalization domain of the toxin is removed, thus forming a final peptide with the sequence as set out in SEQ ID NO: 5. Such truncated form (Pe38) needs to be internalized by means of the Aff01 to keep its cytotoxic activity.\n(§5) To test internalization, then, the viability of the breast adenocarcinoma cell line SK-BR-3 (overexpressing HER2 receptor) and of the breast cancer cell line MCF-7 (low expressing HER2 receptor) was measured at different nanofitin concentrations."}, "[4]": {"tested_on": "SK-BR-3 breast adenocarcinoma cell line (overexpressing HER2 receptor)", "experiment": "Cell internalization assay (viability with Pe38 fusion), HER2 overexpressing cells", "assay_type": "cell-based", "procedure": "as §4, §5"}, "[5]": {"molecular_target": "HER2 (Homo sapiens, UniProt P04626)", "experiment": "ELISA monitoring of anti-HER2 affitin selection", "assay_type": "binding", "conditions": "end of selection process", "excerpt": "(§6) To selectively target HER2 receptor, a library of affitins has been enriched against the target by several consecutive rounds of screening (up to 6 rounds). The enrichment of anti-HER2 affitins has been followed after any selection round by ELISA assay monitoring, also controlling the condition of negligible binding to human (HSA), murine (MSA) and bovine (BSA) serum albumin."}, "[6]": {"tested_on": "human (HSA), murine (MSA) and bovine (BSA) serum albumin", "experiment": "ELISA control of binding to serum albumins during selection", "excerpt": "as §6"}, "[7]": {"molecular_target": "T2, recombinant human protein hHER2 (R&D …)", "experiment": "BLI (Octet), hHER2 on Protein A biosensors, steady state analysis"}, "[8]": {"parameters": "species or system Balb/c nu/nu mice", "conditions": "mouse, in vivo", "procedure": "In vivo imaging experiments were performed using the IVIS Spectrum In Vivo Imaging System (Perkin Elmer Inc.), equipped with 10 narrow band excitation filters (30 nm bandwidth) and 18 narrow band emission filters (20 nm bandwidth) spanning 430-850 nm.\nIn vivo optical imaging biodistribution of IRDye800CW-Aff02 was evaluated in healthy mice. Optical Imaging experiments on three healthy mice were performed using an IVIS Spectrum system after administration of IRDye800CW-Aff02 at a dose of 10 nmol/mouse, in an administration volume of 0.2 mL. The experiments were carried out at 15 min, 30 min, 1 h, 2 h, 4 h, 6 h, 24 h and 48 hours after intravenous administration of the conjugate.\nRegions of interest (ROIs) were drawn on a reference background healthy region (hind leg's muscle) of the mouse and on whole body for each fluorescence image at every time point to evaluate signal intensity in the tissues, expressed as Average Radiant Efficiency (see FIG. 5, reporting the fluorescence signal curves of IRDye800CW-Aff02 administered 10 nmol/mouse in Balb/c nu/nu mice).\nPharmacokinetic analysis of the signal was performed to evaluate the half time of the tested product by using a mono-exponential decay model and the results are reported in Table 3:\nAfter sacrifice, several organs were collected for the measure of residual fluorescence (after 48h). The measurements of fluorescence signal intensity have been obtained from the analysis of each organ selecting an area of interest (ROIs) at the center of each sample. The analyzed organs were: kidney, lung, spleen, liver, muscle and heart."}, "[9]": {"molecular_target": "T3, HER2/Fc chimeric protein (Homo sapiens, UniProt P04626)", "T3 construct": "Fc (immunoglobulin Fc fusion partner)", "experiment": "Competitive ELISA of Aff02 versus trastuzumab-biotin or pertuzumab-biotin", "assay_type": "binding", "excerpt": "A competitive ELISA assay has been developed in order to investigate if the epitope of the HER2/Neu antigen recognized by Aff02 polypeptide was distinct from the epitope recognized by the humanized monoclonal antibodies trastuzumab and pertuzumab, actually used in therapeutic treatments of HER2-positive tumors.\nThe first experiment, aimed at evaluating the quality of the assay, was a competitive ELISA assay carried out between trastuzumab and trastuzumab-biotin. Briefly, a Medisorp transparent plastic plate (96 wells, Thermo Scientific), was coated (64 wells) with 2.5 μg/mL of HER2/Fc chimeric protein in TBS pH 7.4 (1 h, RT). The wells were blocked with 0.5% BSA in TBS (1 h, RT).\nAt the end of the incubation, the plate was washed three times with 250 μL of TBS-T and incubated with Streptavidin-HRP 1:10000 in TBS-T (1 h at RT). The plate was washed again 3 times with TBS-T and developed 5 min with TMB reagent (100 μL). The reaction was blocked with 50 μL of sulfuric acid 2 M and read at 450 nm.\nAs positive control, the same experiment was repeated using an antibody anti RSGH TAG-HRP (1:4000) in place of streptavidin-HRP, in order to evaluate the curve affinity of Aff02 to HER2 receptor.\nBriefly, a Medisorp transparent plastic plate (96 wells, Thermo Scientific) was coated (64 wells) with 2.5 μg/mL of Her2/Fc chimeric protein in TBS pH 7.4 (1 h, RT). The wells was blocked with 0.5% BSA in TBS (1 h, RT). […] At the end of the incubation, the plate was washed three times with 300 μL of TBS-T and incubated with Streptavidin-HRP 1:10000 or anti-RSGH TAG-HRP 1:4000 in TBS-T (1 h at RT). The plate was washed again 3 times with TBS-T and developed 5 min with TMB reagent (100 μL). The reaction was blocked with 50 μL of sulfuric acid 2 M and read at 450 nm."}}, "note": "Entries after “also recorded” stand apart in the source; their conditions may differ."}
{"molecule": "B1", "values": [{"measurement": "koff", "setting": "[1]; unlabeled affitin", "result": "8.3 ± 0.1 × 10^−3 s^−1"}, {"measurement": "kon", "setting": "[1]; unlabeled affitin", "result": "4.5 ± 0.1 × 10^5 M^−1s^−1"}, {"measurement": "Kd", "setting": "[2]", "result": 18, "unit": "nM"}, {"measurement": "koff", "setting": "[2]", "result": 0.0083, "unit": "s⁻¹"}, {"measurement": "kon", "setting": "[2]", "result": 450000, "unit": "M⁻¹ s⁻¹"}]}
{"molecule": "B2", "values": [{"measurement": "alteration of cell viability on MCF-7 cells", "setting": "[3]", "result": "no significant alterations"}, {"measurement": "cytotoxic induction (cell viability) on SK-BR-3 cells", "setting": "[4]; Aff01 tested as fusion Aff02-0/Pe38 (SEQ ID NO: 5), different nanofitin concentrations", "result": "dose-dependent cytotoxic induction"}, {"measurement": "cell internalization through HER2 receptor", "setting": "[4]; concluded from cell death induction by Pe38 fusion", "result": "effective transport of Pe38 through HER2 receptor"}, {"measurement": "affinity to HER2", "setting": "[5]", "result": "nanomolar affinity"}, {"measurement": "binding to albumin", "setting": "[6]", "result": "absence of binding to albumin"}]}
{"molecule": "B3", "values": [{"measurement": "Kd", "setting": "[7]", "result": 1.6, "unit": "nM"}]}
{"molecule": "B4", "values": [{"measurement": "Kd (dissociation equilibrium constant) of the complex IRDye800CW-Aff02 conjugate/hHER2", "setting": "[1]; steady state analysis", "result": "in the nanomolar range"}, {"measurement": "clearance pathway", "setting": "[8]", "result": "preferably cleared by the renal pathway"}, {"measurement": "Half life in muscle", "setting": "[8]; iv", "result": 2.122, "unit": "h"}, {"measurement": "Half life in whole body", "setting": "[8]; iv", "result": 2.196, "unit": "h"}, {"measurement": "average half-life (muscle and whole body)", "setting": "[8]; iv", "result": 2.16, "unit": "h"}]}
{"molecule": "B5", "values": [{"measurement": "competition with trastuzumab and pertuzumab for binding to HER2, assay c / overall", "setting": "[9]; antibody-biotin curves in presence or absence of Aff02, FIGS. 4a, 4b", "result": "no competition; also recorded: do not compete for binding to HER2"}, {"measurement": "binding to HER2 receptor (ELISA)", "setting": "[9]; assay a, FIG. 2", "result": "binders for HER2 receptor"}, {"measurement": "Aff02 response (anti RSGH-Tag Ab detection) with increasing trastuzumab-biotin or pertuzumab-biotin, assay b", "setting": "[9]; fixed 10 μg/mL Aff02, variable antibody-biotin, FIGS. 3a, 3b", "result": "negligible response decrease"}, {"measurement": "epitope competition, assay a", "setting": "[9]; variable Aff02 (0.01-10000 ng/mL) with 0.2 μg/mL trastuzumab-biotin or pertuzumab-biotin, FIG. 2", "result": "epitopes recognized by trastuzumab and pertuzumab are different from that recognized by Aff02"}]}
